Assay results from PMC2172650 (The Journal of Cell Biology, 2003).

Tests used:
[1] = molecular target: T1, h-β2 appendage (residues 700–937), 6xHis (human, UniProt P63010 700-937); experiment: ITC
T1 sequence (looked up): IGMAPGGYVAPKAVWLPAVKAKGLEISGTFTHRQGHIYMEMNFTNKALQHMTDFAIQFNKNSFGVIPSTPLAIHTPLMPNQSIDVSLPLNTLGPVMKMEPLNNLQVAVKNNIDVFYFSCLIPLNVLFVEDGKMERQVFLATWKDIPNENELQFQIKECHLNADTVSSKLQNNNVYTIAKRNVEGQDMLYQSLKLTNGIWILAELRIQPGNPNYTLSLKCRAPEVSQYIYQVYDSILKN

[2] = molecular target: T2, h-γ appendage (residues 704–822), 6xHis (human, UniProt O43747 704-822); experiment: ITC
T2 sequence (looked up): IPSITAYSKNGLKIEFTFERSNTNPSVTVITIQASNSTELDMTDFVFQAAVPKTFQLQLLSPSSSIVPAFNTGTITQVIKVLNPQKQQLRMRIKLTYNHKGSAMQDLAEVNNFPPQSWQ

stoichiometry N [1]: 2 appendage domains per epsinR N3
stoichiometry N [2]: 2 appendage domains per epsinR N3
B1: epsinR N3 construct (291–426), GST cleaved (domain or fragment, human, UniProt Q14677 291-426, looked up)
chain: AHYTGDKASPDQNASTHTPQSSVKTSVPSSKSSGDLVDLFDGTSQSTGGSADLFGGFADFGSAAASGSFPSQVTATSGNGDFGDWSAFNQAPSGPVASSGEFFGSASQPAVELVSGSQSALGPPPAASNSSDLFDL
